Source: the supplement of paper PMC5998384

How the values were obtained:
HeLa Kyoto [1] = test: solubility change mitosis vs G1/S (difference of NP-40 vs SDS log2 ratios) (log2 ratio difference); higher = more soluble in mitosis
HeLa Kyoto [2] = test: thermal stability score vs G1/S (z-score of summed log2 fold changes over temperatures); higher = more thermally stable than in G1/S
HeLa Kyoto [3] = test: solubility in G1/S (NP-40 vs SDS abundance) (log2 ratio); higher = more soluble; settings: cell cycle stage: G1/S
HeLa Kyoto [4] = test: melting temperature (median over replicates), in situ; higher = more thermally stable
[5] = cell cycle stage: early G1 (4.5 h after nocodazole release)
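Throughout, for melting temperature (median over replicates), in situ: HeLa Kyoto cells synchronized by double thymidine or nocodazole block, proteins quantified by TMT10plex mass spectrometry, three independent biological replicates.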
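Throughout, for solubility change mitosis vs G1/S (difference of NP-40 vs SDS log2 ratios): synchronized HeLa Kyoto cells (double thymidine block for G1/S, nocodazole release for mitosis), protein amounts in NP-40 versus SDS lysates quantified by mass spectrometry, three biological replicates.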
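Throughout, for solubility in G1/S (NP-40 vs SDS abundance): HeLa Kyoto cells arrested at G1/S by double thymidine block, proteins quantified by TMT10plex mass spectrometry in mild NP-40 versus SDS extracts, three biological replicates.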
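Throughout, for thermal stability score vs G1/S (z-score of summed log2 fold changes over temperatures): synchronized HeLa Kyoto cells, proteins quantified by TMT10plex mass spectrometry, three biological replicates, mitosis taken 0.5 h after nocodazole release, G1/S directly after double thymidine block.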

## MSENSSDSDSSCGWTVISHEGSDIEMLNSVTPTDSCEPAPECSSLEQEELQALQIEQGESSQNGTVLMEETAYPALEETSSTIEAEEQKIPEDSIYIGTASDDSDIVTLEPPKLEEIGNQEVVIVEEAQSSEDFNMGSSSSSQYTFCQPETVFSSQPSDDESSSDETSNQPSPAFRRRRARKKTVSASESEDRLVAEQETEPSKELSKRQFSSGLNKCVILALVIAISMGFGHFYGTIQIQKRQQLVRKIHEDELNDMKDYLSQCQQEQESFIDYKSLKENLARCWTLTEAEKMSFETQKTNLATENQYLRVSLEKEEKALSSLQEELNKLREQIRILEDKGTSTELVKENQKLKQHLEEEKQKKHSFLSQRETLLTEAKMLKRELERERLVTTALRGELQQLSGSQLHGKSDSPNVYTEKKEIAILRERLTELERKLTFEQQRSDLWERLYVEAKDQNGKQGTDGKKKGGRGSHRAKNKSKETFLGSVKETFDAMKNSTKEFVRHHKEKIKQAKEAVKENLKKFSDSVKSTFRHFKDTTKNIFDEKGNKRFGATKEAAEKPRTVFSDYLHPQYKAPTENHHNRGPTMQNDGRKEKPVHFKEFRKNTNSKKCSPGHDCRENSHSFRKACSGVFDCAQQESMSLFNTVVNPIRMDEFRQIIQRYMLKELDTFCHWNELDQFINKFFLNGVFIHDQKLFTDFVNDVKDYLRNMKEYEVDNDGVFEKLDEYIYRHFFGHTFSPPYGPRSVYIKPCHYSSL [CCPG1]
HeLa Kyoto [1]
  solubility change mitosis (log2): -0.0492
HeLa Kyoto [2]; [5]
  thermal stability score: 1.39
HeLa Kyoto [2]; cell cycle stage: mitosis
  thermal stability score: 2.71
HeLa Kyoto [3]
  solubility in G1/S (log2): -0.321
HeLa Kyoto [4]; cell cycle stage: G1/S
  melting temperature: 53.6 °C
HeLa Kyoto [4]; cell cycle stage: mitosis
  melting temperature: 53.6 °C

## MSESSSKSSQPLASKQEKDGTEKRGRGRPRKQPPVSPGTALVGSQKEPSEVPTPKRPRGRPKGSKNKGAAKTRKTTTTPGRKPRGRPKKLEKEEEEGISQESSEEEQ [HMGA1]
HeLa Kyoto [1]
  solubility change mitosis (log2): 1.62
HeLa Kyoto [2]; [5]
  thermal stability score: -6.52
HeLa Kyoto [2]; cell cycle stage: mitosis
  thermal stability score: -8.11
HeLa Kyoto [3]
  solubility in G1/S (log2): 0.583
HeLa Kyoto [4]; cell cycle stage: mitosis
  melting temperature: 57.6 °C

## MSEVKSRKKSGPKGAPAAEPGKRSEGGKTPVARSSGGGGWADPRTCLSLLSLGTCLGLAWFVFQQSEKFAKVENQYQLLKLETNEFQQLQSKISLISEKWQKSEAIMEQLKSFQIIAHLKRLQEEINEVKTWSNRITEKQDILNNSLTTLSQDITKVDQSTTSMAKDVGLKITSVKTDIRRISGLVTDVISLTDSVQELENKIEKVEKNTVKNIGDLLSSSIDRTATLRKTASENSQRINSVKKTLTELKSDFDKHTDRFLSLEGDRAKVLKTVTFANDLKPKVYNLKKDFSRLEPLVNDLTLRIGRLVTDLLQREKEIAFLSEKISNLTIVQAEIKDIKDEIAHISDMN [IKBIP]
HeLa Kyoto [1]
  solubility change mitosis (log2): 0.165
HeLa Kyoto [2]; [5]
  thermal stability score: 2.64
HeLa Kyoto [2]; cell cycle stage: mitosis
  thermal stability score: 4.37
HeLa Kyoto [3]
  solubility in G1/S (log2): 0.751
HeLa Kyoto [4]; cell cycle stage: G1/S
  melting temperature: 54.1 °C
HeLa Kyoto [4]; cell cycle stage: mitosis
  melting temperature: 55.2 °C

## MSEWMKKGPLEWQDYIYKEVRVTASEKNEYKGWVLTTDPVSANIVLVNFLEDGSMSVTGIMGHAVQTVETMNEGDHRVREKLMHLFTSGDCKAYSPEDLEERKNSLKKWLEKNHIPITEQGDAPRTLCVAGVLTIDPPYGPENCSSSNEIILSRVQDLIEGHLTASQ [GEMIN6]
HeLa Kyoto [1]
  solubility change mitosis (log2): 0.0835
HeLa Kyoto [2]; [5]
  thermal stability score: -0.4
HeLa Kyoto [2]; cell cycle stage: mitosis
  thermal stability score: -2.06
HeLa Kyoto [3]
  solubility in G1/S (log2): 0.271
HeLa Kyoto [4]; cell cycle stage: G1/S
  melting temperature: 53.6 °C
HeLa Kyoto [4]; cell cycle stage: mitosis
  melting temperature: 52.3 °C

## MSFIPVAEDSDFPIHNLPYGVFSTRGDPRPRIGVAIGDQILDLSIIKHLFTGPVLSKHQDVFNQPTLNSFMGLGQAAWKEARVFLQNLLSVSQARLRDDTELRKCAFISQASATMHLPATIGDYTDFYSSRQHATNVGIMFRDKENALMPNWLHLPVGYHGRASSVVVSGTPIRRPMGQMKPDDSKPPVYGACKLLDMELEMAFFVGPGNRLGEPIPISKAHEHIFGMVLMNDWSARDIQKWEYVPLGPFLGKSFGTTVSPWVVPMDALMPFAVPNPKQDPRPLPYLCHDEPYTFDINLSVNLKGEGMSQAATICKSNFKYMYWTMLQQLTHHSVNGCNLRPGDLLASGTISGPEPENFGSMLELSWKGTKPIDLGNGQTRKFLLDGDEVIITGYCQGDGYRIGFGQCAGKVLPALLPS [FAH]
HeLa Kyoto [1]
  solubility change mitosis (log2): -0.0884
HeLa Kyoto [2]; [5]
  thermal stability score: -0.791
HeLa Kyoto [2]; cell cycle stage: mitosis
  thermal stability score: -0.764
HeLa Kyoto [3]
  solubility in G1/S (log2): 0.207
HeLa Kyoto [4]; cell cycle stage: G1/S
  melting temperature: 58.7 °C
HeLa Kyoto [4]; cell cycle stage: mitosis
  melting temperature: 59 °C

## MSFVAGVIRRLDETVVNRIAAGEVIQRPANAIKEMIENCLDAKSTSIQVIVKEGGLKLIQIQDNGTGIRKEDLDIVCERFTTSKLQSFEDLASISTYGFRGEALASISHVAHVTITTKTADGKCAYRASYSDGKLKAPPKPCAGNQGTQITVEDLFYNIATRRKALKNPSEEYGKILEVVGRYSVHNAGISFSVKKQGETVADVRTLPNASTVDNIRSIFGNAVSRELIEIGCEDKTLAFKMNGYISNANYSVKKCIFLLFINHRLVESTSLRKAIETVYAAYLPKNTHPFLYLSLEISPQNVDVNVHPTKHEVHFLHEESILERVQQHIESKLLGSNSSRMYFTQTLLPGLAGPSGEMVKSTTSLTSSSTSGSSDKVYAHQMVRTDSREQKLDAFLQPLSKPLSSQPQAIVTEDKTDISSGRARQQDEEMLELPAPAEVAAKNQSLEGDTTKGTSEMSEKRGPTSSNPRKRHREDSDVEMVEDDSRKEMTAACTPRRRIINLTSVLSLQEEINEQGHEVLREMLHNHSFVGCVNPQWALAQHQTKLYLLNTTKLSEELFYQILIYDFANFGVLRLSEPAPLFDLAMLALDSPESGWTEEDGPKEGLAEYIVEFLKKKAEMLADYFSLEIDEEGNLIGLPLLIDNYVPPLEGLPIFILRLATEVNWDEEKECFESLSKECAMFYSIRKQYISEESTLSGQQSEVPGSIPNSWKWTVEHIVYKALRSHILPPKHFTEDGNILQLANLPDLYKVFERC [MLH1]
HeLa Kyoto [1]
  solubility change mitosis (log2): -0.21
HeLa Kyoto [2]; [5]
  thermal stability score: 3.37
HeLa Kyoto [2]; cell cycle stage: mitosis
  thermal stability score: 5.51
HeLa Kyoto [3]
  solubility in G1/S (log2): -0.0862
HeLa Kyoto [4]; cell cycle stage: G1/S
  melting temperature: 46.3 °C
HeLa Kyoto [4]; cell cycle stage: mitosis
  melting temperature: 48.8 °C

## MSGCGLFLRTTAAARACRGLVVSTANRRLLRTSPPVRAFAKELFLGKIKKKEVFPFPEVSQDELNEINQFLGPVEKFFTEEVDSRKIDQEGKIPDETLEKLKSLGLFGLQVPEEYGGLGFSNTMYSRLGEIISMDGSITVTLAAHQAIGLKGIILAGTEEQKAKYLPKLASGEHIAAFCLTEPASGSDAASIRSRATLSEDKKHYILNGSKVWITNGGLANIFTVFAKTEVVDSDGSVKDKITAFIVERDFGGVTNGKPEDKLGIRGSNTCEVHFENTKIPVENILGEVGDGFKVAMNILNSGRFSMGSVVAGLLKRLIEMTAEYACTRKQFNKRLSEFGLIQEKFALMAQKAYVMESMTYLTAGMLDQPGFPDCSIEAAMVKVFSSEAAWQCVSEALQILGGLGYTRDYPYERILRDTRILLIFEGTNEILRMYIALTGLQHAGRILTTRIHELKQAKVSTVMDTVGRRLRDSLGRTVDLGLTGNHGVVHPSLADSANKFEENTYCFGRTVETLLLRFGKTIMEEQLVLKRVANILINLYGMTAVLSRASRSIRIGLRNHDHEVLLANTFCVEAYLQNLFSLSQLDKYAPENLDEQIKKVSQQILEKRAYICAHPLDRTC [ACAD9]
HeLa Kyoto [1]
  solubility change mitosis (log2): -0.164
HeLa Kyoto [2]; [5]
  thermal stability score: 4.01
HeLa Kyoto [2]; cell cycle stage: mitosis
  thermal stability score: 3.04
HeLa Kyoto [3]
  solubility in G1/S (log2): -0.06
HeLa Kyoto [4]; cell cycle stage: G1/S
  melting temperature: 54.6 °C
HeLa Kyoto [4]; cell cycle stage: mitosis
  melting temperature: 54.7 °C

## MSGDHLHNDSQIEADFRLNDSHKHKDKHKDREHRHKEHKKEKDREKSKHSNSEHKDSEKKHKEKEKTKHKDGSSEKHKDKHKDRDKEKRKEEKVRASGDAKIKKEKENGFSSPPQIKDEPEDDGYFVPPKEDIKPLKRPRDEDDADYKPKKIKTEDTKKEKKRKLEEEEDGKLKKPKNKDKDKKVPEPDNKKKKPKKEEEQKWKWWEEERYPEGIKWKFLEHKGPVFAPPYEPLPENVKFYYDGKVMKLSPKAEEVATFFAKMLDHEYTTKEIFRKNFFKDWRKEMTNEEKNIITNLSKCDFTQMSQYFKAQTEARKQMSKEEKLKIKEENEKLLKEYGFCIMDNHKERIANFKIEPPGLFRGRGNHPKMGMLKRRIMPEDIIINCSKDAKVPSPPPGHKWKEVRHDNKVTWLVSWTENIQGSIKYIMLNPSSRIKGEKDWQKYETARRLKKCVDKIRNQYREDWKSKEMKVRQRAVALYFIDKLALRAGNEKEEGETADTVGCCSLRVEHINLHPELDGQEYVVEFDFLGKDSIRYYNKVPVEKRVFKNLQLFMENKQPEDDLFDRLNTGILNKHLQDLMEGLTAKVFRTYNASITLQQQLKELTAPDENIPAKILSYNRANRAVAILCNHQRAPPKTFEKSMMNLQTKIDAKKEQLADARRDLKSAKADAKVMKDAKTKKVVESKKKAVQRLEEQLMKLEVQATDREENKQIALGTSKLNYLDPRITVAWCKKWGVPIEKIYNKTQREKFAWAIDMADEDYEF [TOP1]
HeLa Kyoto [1]
  solubility change mitosis (log2): 0.531
HeLa Kyoto [2]; [5]
  thermal stability score: 7.82
HeLa Kyoto [2]; cell cycle stage: mitosis
  thermal stability score: 12
HeLa Kyoto [3]
  solubility in G1/S (log2): -1.22
HeLa Kyoto [4]; cell cycle stage: G1/S
  melting temperature: 46.9 °C
HeLa Kyoto [4]; cell cycle stage: mitosis
  melting temperature: 49.1 °C

## MSGFLEELLGEKLVTGGGEEVDVHSLGARGISLLGLYFGCSLSAPCAQLSASLAAFYGRLRGDAAAGPGPGAGAGAAAEPEPRRRLEIVFVSSDQDQRQWQDFVRDMPWLALPYKEKHRKLKLWNKYRISNIPSLIFLDATTGKVVCRNGLLVIRDDPEGLEFPWGPKPFREVIAGPLLRNNGQSLESSSLEGSHVGVYFSAHWCPPCRSLTRVLVESYRKIKEAGQNFEIIFVSADRSEESFKQYFSEMPWLAVPYTDEARRSRLNRLYGIQGIPTLIMLDPQGEVITRQGRVEVLNDEDCREFPWHPKPVLELSDSNAAQLNEGPCLVLFVDSEDDGESEAAKQLIQPIAEKIIAKYKAKEEEAPLLFFVAGEDDMTDSLRDYTNLPEAAPLLTILDMSARAKYVMDVEEITPAIVEAFVNDFLAEKLKPEPI [NXN]
HeLa Kyoto [1]
  solubility change mitosis (log2): -0.204
HeLa Kyoto [2]; [5]
  thermal stability score: 1.06
HeLa Kyoto [2]; cell cycle stage: mitosis
  thermal stability score: 1.73
HeLa Kyoto [3]
  solubility in G1/S (log2): 0.175
HeLa Kyoto [4]; cell cycle stage: G1/S
  melting temperature: 51 °C
HeLa Kyoto [4]; cell cycle stage: mitosis
  melting temperature: 51 °C
